Measured values reported in patent publication US8957190B2, “Use of heat-resistant biotin-binding protein, and solid support having the protein attached thereto” (Japan Tobacco Inc., priority 2006, dated 2015).

Assays:
[1] = Kinetic analysis of tamavidin 2-biotin interaction using a Biacore 3000 biosensor (surface plasmon resonance); format: binding; conditions: Biacore 3000, 25° C.
Description: Kinetic Analysis of Tamavidin 2 (TM2)-Biotin Interaction Using a Biacore Biosensor
Highly-purified BSA (2 mg, Sigma) and NHS-biotin (1 mg, Pierce) were dissolved in 1 ml of 50 mM sodium borate pH 8.0 and incubated at 4° C. for 2 hours. The NHS-biotin (EZ-Link NHS-LC-LC-Biotin) had been dissolved in a small volume of DMSO before addition. This solution was introduced into a dialysis tube (MWCO 6-8,000) and dialyzed overnight at 4° C. against 50 mM sodium carbonate pH 6.7. The biotin-BSA conjugate thus prepared (MW 67 kDa, 30 μM) was used as a ligand (a substance immobilized on a sensor chip) for a Biacore® biosensor. On the other hand, recombinant tamavidin 2 was prepared as an analyte (a substance flowing through channels) and analyzed for intermolecular interactions using a Biacore® 3000 (a biosensor designed on the principle of surface plasmon resonance, Biacore Inc.). Biotin-BSA and BSA alone (serving as a negative control) were each immobilized on CM5 sensor chips by amine coupling techniques. Their immobilized amount was adjusted to around 200 RU. BSA-immobilized chips were placed in flow cells 1 and 3, while biotin-BSA-immobilized chips were placed in flow cells 2 and 4. Tamavidin 2 was loaded into flow cells 1 and 2, while streptavidin was loaded into flow cells 3 and 4, each being loaded at a flow rate of 20 μl/min for 2 minutes in running buffer [10 mM HEPES pH 7.4, 150 mM NaCl, 3 mM EDTA, 0.005% Surfactant 20 (Biacore Inc.)]. The samples were then monitored for their dissociation over 60 minutes. […] The dissociation constant (Kd) was determined from kd/ka.
It should be noted that when the regeneration step was skipped, Rmax (the maximum binding amount of an analyte) was reduced ever time the measurement at each concentration was made. For this reason, Rmax was calculated by local fitting for each concentration during analysis. […]

[2] = test system: salmon sperm DNA; test: Test for non-specific binding to DNA (slot blot, antibody detection); conditions: 25 μg/mL protein, salmon sperm DNA 10 μg to 0.3 μg on membrane
Description: TM2 was analyzed for its non-specific binding to DNA. Serial dilutions of salmon sperm DNA (10 μg to 0.3 μg) in 2×SSC buffer were alkali-denatured and adsorbed onto a Hybond N+ membrane (Amersham Biosciences) using Bio-Dot SF (BIO-RAD). The membrane was blocked with 5×Denhardt's solution (0.1% BSA, 0.1% Ficoll, 0, 1% polyvinylpyrrolidone) and then immersed in a 25 μg/mL TM2, streptavidin or avidin solution at room temperature for 90 minutes. The membrane was then washed three times with TTBS buffer (TBS buffer containing 0.05% Tween 20) at room temperature for 5 minutes. The membrane was blocked with TBS buffer containing 0.5% skimmed milk and 0.01% Tween 20 for 1 hour. The primary antibodies used were rabbit anti-TM2 antibody (purified as described above) for TM2, rabbit anti-streptavidin antibody (SIGMA) for streptavidin, and rabbit anti-avidin antibody (Abcam) for avidin, which were diluted to give the same antibody titer before use. Antigen-antibody reaction with each primary antibody was performed overnight at room temperature. […] The membrane was washed three times with TTBS buffer at room temperature for 5 minutes, and then developed with an Alkaline Phosphatase substrate kit II, vector Black (Funakoshi Co., Ltd., Japan), followed by quantification with a Las-3000 system (FUJIFILM).

[3] = Heat resistance: fluorescent biotin-binding activity of heated biotin-binding proteins
Description: Based on the property of fluorescent biotin to lose its fluorescence intensity when bound to a biotin-binding site in a biotin-binding protein, tamavidin 2 was compared with streptavidin and avidin for biotin-binding capacity under high temperature conditions.
About 0.25 μg/μL TM2 and streptavidin were heated at room temperature, 50° C., 60° C., 70° C., 80° C. or 90° C. for 20 minutes. Solutions were prepared to contain the heat-treated TM2 or streptavidin at stepwise concentrations from 0 μL to 27 μL in 150 μL assay buffer (50 mM NaH2PO4, 100 mM NaCl, 1 mM EDTA (pH 7.5)). These solutions were each mixed with 50 μL (250 pmol) of a 5 pmol/μL fluorescent biotin solution (biotin-4-fluorescein; Molecular Probe) and allowed to stand at room temperature for 20 minutes, followed by measuring the fluorescence intensity with a Las-3000 system (FUJIFILM).
Heat resistance test on the biotin-binding proteins was accomplished as follows. About 0.25 μg/μL biotin-binding protein was heated at room temperature, 50° C., 60° C., 70° C., 80° C. or 90° C. for 20 minutes. Solutions were prepared to contain the heated biotin-binding protein at stepwise concentrations from 0 μL to 12 μL in 150 μL assay buffer. These solutions were each mixed with 50 μL (100 pmol) of a 2 pmol/μL fluorescent biotin solution and allowed to stand at room temperature for 20 minutes, followed by measuring the fluorescence intensity at Ex=460 nm and Em=525 nm with an Infinite M200 (TECAN).

[4] = Activity measurement by means of fluorescent biotin (method of Kada et al.); format: binding; conditions: room temperature
Description: By means of fluorescent biotin, tamavidin 2 was measured for its biotin-binding activity according to the method of Kada et al. (Biochim. Biophys. Acta., 1427: 44-48, (1999)). Solutions were prepared to contain the purified TM2 at stepwise concentrations from 0 pmol to 486 pmol in 200 μl assay buffer (50 mM NaH2PO4, 100 mM NaCl, 1 mM EDTA (pH 7.5)). These solutions were each mixed with 50 μL (1 nmol) of a 20 pmol/μL fluorescent biotin solution (biotin-4-fluorescein; Molecular Probe) and allowed to stand at room temperature for 10 minutes, followed by measuring the fluorescence intensity with a Las-3000 system (FUJIFILM). As a result, 0.274 nmol of TM2 was bound to nmol of fluorescent biotin. Namely, 3.6 mol of fluorescent biotin was bound to 1 mol of tamavidin. […] In the case of streptavidin, 3.4 mol of fluorescent biotin was bound per mol of streptavidin.

[5] = Heat resistance: protein stability (heating, SDS-PAGE band quantification); format: physicochemical; conditions: for tetramer dissociation upon addition of biotin: biotin added, after treatment at 95° C.; for heat resistance higher than that of streptavidin: difference of 50% band-intensity temperatures; for temperature which caused a 50% reduction in protein band intensity: heated 20 minutes, soluble protein, SDS-PAGE, no biotin; for heat resistance higher than in streptavidin (summary statement): summary in disclosure
Description: (§1) 0.2 μg/μL TM2 and 0.2 μg/μL streptavidin were heated in 10 μL (2 μg) volumes at room temperature, 50° C., 60° C., 70° C., 80° C., 90° C. or 99° C. for 20 minutes, followed by centrifugation at 15000 rpm for 10 minutes. Each supernatant (soluble protein) was suspended in an equal volume of 2×SDS sample buffer (100 mM Tris-HCl pH 6.8, 12% 2-mercaptoethanol, 2% SDS, 20% glycerol), heated at 95° C. for 10 minutes and then analyzed by SDS-PAGE. Protein bands were detected by CBB staining. Using a Las-3000 system (FUJIFILM), a calibration curve was prepared based on quantification markers (LMW ELECTROPHORESIS CALIBRATION KIT; Pharmacia Biotech) and used to quantify the protein bands. The temperature which caused a 50% reduction in protein band intensity was 71° C. for streptavidin, whereas it was 87° C. for tamavidin 2.
as §1, with “Purified tamavidin 1 at a concentration of 0.2” for “0.2”, “was” for “TM2 and 0.2 μg/μL streptavidin were”, “As a result, the” for “The”, “76°” for “71° C. for streptavidin, whereas it was 87°”, “1.” for “2.”

[6] = Fluorescent biotin-binding activity of tamavidin 1 after heat treatment at 70° C.; conditions: supernatant treated at 70° C. for 10 minutes, incubation at room temperature
Description: Fluorescent biotin-binding activity was measured for tamavidin 1 in the above centrifuged supernatant after heat treatment at 70° C. The same procedure as used for tamavidin 2 was repeated for this purpose. Incubation with fluorescent biotin was performed at room temperature.

[7] = 1:1 binding model, biotin-BSA ligand

Molecule | Association rate constant ks [1, 7] | Dissociation rate constant kd [1, 7] | Kd ([1]; determined from kd/ka, read-out: Dissociation constant Kd) | non-specific binding to DNA (staining intensity versus DNA concentration) [2] | temperature which caused a 50% reduction in fluorescence intensity decrement compared to the unheated sample ([3]; free protein, heated 20 minutes) | change in binding to fluorescent biotin compared to the room temperature value ([3]; heated at 70° C. or below, 20 minutes) | retained fluorescent biotin-binding activity ([3]; heated at 80° C., 20 minutes) | amount of TM2 bound to nmol of fluorescent biotin ([4]; 1 nmol fluorescent biotin added) | fluorescent biotin bound per mol of protein ([4]; 10 minutes) | tetramer dissociation upon addition of biotin [5] | heat resistance higher than that of streptavidin [5] | temperature which caused a 50% reduction in protein band intensity [5] | heat resistance higher than in streptavidin (summary statement) [5] | binding to fluorescent biotin after heat treatment [6]
Tamavidin 2: biotin-binding protein (SEQ ID NO: 4) from Pleurotus cornucopiae var. citrinopileatus, recombinant from E. coli, tetramer (protein, listed as Pleurotus cornucopiae, tetramer) MSDVQSSLTGTWYNELNSKMELTANKDGTLTGKYLSKVGDVYVPYPLSGRYNLQPPAGQGVALGWAVSWENSKIHSATTWSGQFFSESSPVILTQWLLSSSTARGDVWESTLVGNDSFTKTAPTEQQIAHAQLHCRAPRLK | 919000 M⁻¹ s⁻¹ | 6.83e-06 s⁻¹ | 7.43 pM | not strongly affected by DNA concentration | 85 °C | no change | 82% | 0.274 nmol | 3.6 mol | tetramer dissociation was not observed | ≥ 15 °C | 87 °C | ≥ 10 °C | –
Tamavidin 1: biotin-binding protein (SEQ ID NO: 2) purified from the edible mushroom Pleurotus cornucopiae var. citrinopileatus; recombinant from E. coli (protein, listed as Pleurotus cornucopiae) MKDVQSLLTGTWYNELGSTMNLTANKDGSLTGTYHSNVGEVPPTYHLSGRYNLQPPSGQGVTLGWAVSFENTSANVHSVSTWSGQYFSEPAEVILTQWLLSRSSEREDLWQSTHVGHDEFSKTKPTKEKIAQAQLLRRGLKFE | – | – | – | – | – | – | – | – | – | tetramer dissociation was not observed | 5 °C | 76 °C | 5 °C | found to bind to fluorescent biotin
